This is an account of results in PMC8177754.

Substrate in the data set: Nc1nc2c(ncn2[C@@H]2O[C@@H]3COP(=O)(O)O[C@H]4[C@@H](O)[C@H](n5cnc6c(N)ncnc65)O[C@@H]4COP(=O)(O)O[C@H]3[C@H]2O)c(=O)[nH]1
Description: purified protein. In kind it is biochemical, Shewanella oneidensis. To be noted: pH 8.0.

B1: (Shewanella oneidensis MR-1) (protein)
chain: MNAFLPHDFKVYMDVRHALLAVATALDFVGVDDLHHGHRVAYMAYECASVLGWPDEKKQFAYFAGLIHDCGVSSSEEHLRLLKLMQPEDAHCHSKRGYEALLECPILDVFAPIVLYHHTPWLELQSHDLSVFERDIAALIFLADRTDFLRARYTHGCHEELITLHESMVAENLLAHCGTLFEPEMVNAMCQLVKKDGFWYNMDATHIELLGLEFKANHFYDKELDIGGVKQLARFLARIVDAKSPFTFHHSEKVALLAKLVAKDCGISDTDAELLYVAGLLHDVGKLKTPDLLLHKEGKLTKEEYSIVKRHTVDTEHTLHRFFPKSVIGEWASNHHERLDGSGYPFSKRQEQLDLPSRILAVVDVFQALTQKRPYRGSLSLSEIYDIMQPMVDKGQLDAGVYSILLADIDNFYHLSTQEFQT
For the protein B1, the Km (in general, the substrate concentration at which the rate is half of its maximum) came to 119 ± 60 µM.
